Source: paper PMC10267678, “Proteomic Profiling of Extracellular Matrix Components from Patient Metastases Identifies Consistently Elevated Proteins for Developing Nanobodies That Target Primary Tumors and Metastases” (Cancer Research, 2023)

B1: NJT6 (VHH)
VHH: QVQLVETGGDLVQPGGSLRLSCAASGLTLDYYAIGWVRQAPGKEREGVSCITPQDGNTYYDDSVMGRFTILRDNAKNMVYLQMNNLKPEDTAVYFCAAAGALTLDPSEYEYWGQGTQVTVSS
notes: The label differs between experiments (biotin, Alexa-647); also called anti-TNC nanobody NJT6; 64Cu-NJT6; source: selected from alpaca phage-display library B; expressed and purified by methods previously described; not shown: sortase tag, C-terminal, kept
B2: NJT3 (VHH)
VHH: QVQLVETGGGLAQAGGSLRLSCAASGRTLSGYAMGWFRQAPGKEREFVAAISWSGRNTYYDYTVQGRFTISKDNAKNTVNLQMNSLKPEDTAVYYCAVSRSLDEFGDGYEMDYWGDGTQVTVSS
notes: The label differs between experiments (biotin, Alexa-647); also called anti-TNC nanobody NJT3; 64Cu-NJT3; source: selected from alpaca phage-display library B; expressed and purified by methods previously described; not shown: sortase tag, C-terminal, kept
B3: NJT4 (VHH)
VHH: QVQLVESGGGLVQPGGSLRLSCAASGFTFSSYTMRWYRQAPGKERELVAFIGVAGGSTKYADSVKGRFTISRDNTKNTVYLQMNTLKPEDTAVYYCYAPLTPYWGQGTQVTVSS
notes: The label differs between experiments (biotin, Alexa-647); also called anti-TNC nanobody NJT4; 64Cu-NJT4; source: selected from alpaca phage-display library B; expressed and purified by methods previously described; not shown: sortase tag, C-terminal, kept

Assays:
[1] = biological target: T1, full-length human TNC protein (Homo sapiens, UniProt P24821); assay: far-Western, overlay or dot blot; immunoblot of human TNC protein probed with the nanobodies; settings: both partners purified
T1 construct: tenascin-C, human, full-length recombinant protein (Sigma); also called human tenascin-C; hTNC; source: bought: Sigma-Aldrich (purified, recombinant)

[2] = biological target: T2, mouse TNC on tissue sections of lung metastases derived from murine TNBC cell line 4T1 (Mus musculus (4T1 metastases in BALB/c), UniProt Q80YX1); assay: immunostaining of cells or tissue; IHC with the nanobodies on tissue sections of lung metastases (LM2 in NSG mice; 4T1 in BALB/c mice); settings: one partner purified
T2 construct: tenascin-C, mouse, endogenous in 4T1 lung metastases; source: endogenous, 4T1 lung metastases in BALB/c mice, tissue sections

[3] = biological target: T3, human TNC in the ECM of tumors and lung metastases derived from human TNBC cell line LM2 (Homo sapiens (LM2 cells), UniProt P24821); assay: two-photon microscopy of resected organs after intravenous injection of labelled nanobody; Alexa-647 labelled nanobodies injected via the tail vein into NSG mice with LM2-TGL-ZsGreen tumors; organs resected 2 hours after injection and imaged; settings: one partner purified
T3 construct: tenascin-C, human, made by LM2 human TNBC cells in xenografts; also called hTNC; TNC fibrils; source: endogenous, ECM of LM2 (LM2-TGL-ZsGreen) tumors and lung metastases in NSG mice
T3 sequence (P24821 23-2201): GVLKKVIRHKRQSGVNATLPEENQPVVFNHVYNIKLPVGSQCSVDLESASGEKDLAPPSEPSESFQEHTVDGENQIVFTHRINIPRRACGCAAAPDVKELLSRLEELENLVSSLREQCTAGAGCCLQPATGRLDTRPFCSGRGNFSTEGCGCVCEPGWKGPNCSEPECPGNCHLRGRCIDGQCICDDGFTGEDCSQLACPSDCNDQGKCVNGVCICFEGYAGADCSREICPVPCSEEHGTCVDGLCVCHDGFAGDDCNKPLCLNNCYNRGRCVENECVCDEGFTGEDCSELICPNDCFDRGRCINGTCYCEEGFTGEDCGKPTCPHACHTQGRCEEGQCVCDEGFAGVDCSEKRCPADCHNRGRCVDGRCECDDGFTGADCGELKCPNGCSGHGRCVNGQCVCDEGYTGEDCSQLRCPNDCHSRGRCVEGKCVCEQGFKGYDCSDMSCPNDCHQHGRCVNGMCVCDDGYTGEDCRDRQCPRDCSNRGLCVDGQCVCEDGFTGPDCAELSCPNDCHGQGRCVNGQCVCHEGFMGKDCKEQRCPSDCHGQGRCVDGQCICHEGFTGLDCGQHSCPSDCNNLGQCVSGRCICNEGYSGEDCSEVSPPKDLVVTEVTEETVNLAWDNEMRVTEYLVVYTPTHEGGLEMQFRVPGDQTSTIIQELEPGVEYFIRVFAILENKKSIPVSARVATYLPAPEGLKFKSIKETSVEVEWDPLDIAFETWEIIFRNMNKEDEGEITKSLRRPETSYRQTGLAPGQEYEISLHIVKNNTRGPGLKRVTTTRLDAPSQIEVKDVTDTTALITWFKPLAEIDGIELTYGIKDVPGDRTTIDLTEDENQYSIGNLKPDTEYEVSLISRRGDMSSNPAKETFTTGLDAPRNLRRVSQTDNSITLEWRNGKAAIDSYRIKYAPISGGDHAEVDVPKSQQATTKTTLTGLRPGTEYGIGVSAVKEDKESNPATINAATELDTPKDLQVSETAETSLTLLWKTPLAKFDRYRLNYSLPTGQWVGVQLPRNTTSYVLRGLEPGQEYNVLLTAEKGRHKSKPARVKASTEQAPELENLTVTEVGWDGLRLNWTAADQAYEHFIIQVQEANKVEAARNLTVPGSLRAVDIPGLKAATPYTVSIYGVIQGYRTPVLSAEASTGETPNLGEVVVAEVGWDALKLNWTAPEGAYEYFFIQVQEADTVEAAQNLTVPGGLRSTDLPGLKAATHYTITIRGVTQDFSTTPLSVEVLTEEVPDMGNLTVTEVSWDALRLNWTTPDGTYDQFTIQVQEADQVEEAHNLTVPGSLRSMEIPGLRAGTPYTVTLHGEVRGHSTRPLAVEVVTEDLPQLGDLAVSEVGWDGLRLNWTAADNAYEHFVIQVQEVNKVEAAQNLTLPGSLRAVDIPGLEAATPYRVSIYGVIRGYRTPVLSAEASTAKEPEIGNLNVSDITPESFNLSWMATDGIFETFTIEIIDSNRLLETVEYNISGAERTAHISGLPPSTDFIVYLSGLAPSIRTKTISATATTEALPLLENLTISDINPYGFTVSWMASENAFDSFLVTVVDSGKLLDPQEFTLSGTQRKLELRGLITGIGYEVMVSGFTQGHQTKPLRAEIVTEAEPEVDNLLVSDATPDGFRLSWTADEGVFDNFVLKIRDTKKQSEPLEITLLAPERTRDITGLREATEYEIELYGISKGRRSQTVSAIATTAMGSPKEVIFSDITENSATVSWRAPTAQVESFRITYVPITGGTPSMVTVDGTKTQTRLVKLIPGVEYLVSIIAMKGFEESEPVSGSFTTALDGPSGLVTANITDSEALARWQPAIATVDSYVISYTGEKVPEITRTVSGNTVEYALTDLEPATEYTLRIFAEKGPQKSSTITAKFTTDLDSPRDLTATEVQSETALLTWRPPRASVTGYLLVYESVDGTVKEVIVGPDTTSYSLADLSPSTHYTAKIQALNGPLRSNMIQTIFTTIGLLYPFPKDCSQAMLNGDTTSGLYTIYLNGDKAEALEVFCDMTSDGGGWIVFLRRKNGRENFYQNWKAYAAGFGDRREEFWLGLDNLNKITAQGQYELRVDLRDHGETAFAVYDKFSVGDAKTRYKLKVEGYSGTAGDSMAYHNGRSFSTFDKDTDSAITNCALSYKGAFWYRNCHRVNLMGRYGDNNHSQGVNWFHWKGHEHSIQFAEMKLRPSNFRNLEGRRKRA

T2 sequence (Q80YX1 23-2110): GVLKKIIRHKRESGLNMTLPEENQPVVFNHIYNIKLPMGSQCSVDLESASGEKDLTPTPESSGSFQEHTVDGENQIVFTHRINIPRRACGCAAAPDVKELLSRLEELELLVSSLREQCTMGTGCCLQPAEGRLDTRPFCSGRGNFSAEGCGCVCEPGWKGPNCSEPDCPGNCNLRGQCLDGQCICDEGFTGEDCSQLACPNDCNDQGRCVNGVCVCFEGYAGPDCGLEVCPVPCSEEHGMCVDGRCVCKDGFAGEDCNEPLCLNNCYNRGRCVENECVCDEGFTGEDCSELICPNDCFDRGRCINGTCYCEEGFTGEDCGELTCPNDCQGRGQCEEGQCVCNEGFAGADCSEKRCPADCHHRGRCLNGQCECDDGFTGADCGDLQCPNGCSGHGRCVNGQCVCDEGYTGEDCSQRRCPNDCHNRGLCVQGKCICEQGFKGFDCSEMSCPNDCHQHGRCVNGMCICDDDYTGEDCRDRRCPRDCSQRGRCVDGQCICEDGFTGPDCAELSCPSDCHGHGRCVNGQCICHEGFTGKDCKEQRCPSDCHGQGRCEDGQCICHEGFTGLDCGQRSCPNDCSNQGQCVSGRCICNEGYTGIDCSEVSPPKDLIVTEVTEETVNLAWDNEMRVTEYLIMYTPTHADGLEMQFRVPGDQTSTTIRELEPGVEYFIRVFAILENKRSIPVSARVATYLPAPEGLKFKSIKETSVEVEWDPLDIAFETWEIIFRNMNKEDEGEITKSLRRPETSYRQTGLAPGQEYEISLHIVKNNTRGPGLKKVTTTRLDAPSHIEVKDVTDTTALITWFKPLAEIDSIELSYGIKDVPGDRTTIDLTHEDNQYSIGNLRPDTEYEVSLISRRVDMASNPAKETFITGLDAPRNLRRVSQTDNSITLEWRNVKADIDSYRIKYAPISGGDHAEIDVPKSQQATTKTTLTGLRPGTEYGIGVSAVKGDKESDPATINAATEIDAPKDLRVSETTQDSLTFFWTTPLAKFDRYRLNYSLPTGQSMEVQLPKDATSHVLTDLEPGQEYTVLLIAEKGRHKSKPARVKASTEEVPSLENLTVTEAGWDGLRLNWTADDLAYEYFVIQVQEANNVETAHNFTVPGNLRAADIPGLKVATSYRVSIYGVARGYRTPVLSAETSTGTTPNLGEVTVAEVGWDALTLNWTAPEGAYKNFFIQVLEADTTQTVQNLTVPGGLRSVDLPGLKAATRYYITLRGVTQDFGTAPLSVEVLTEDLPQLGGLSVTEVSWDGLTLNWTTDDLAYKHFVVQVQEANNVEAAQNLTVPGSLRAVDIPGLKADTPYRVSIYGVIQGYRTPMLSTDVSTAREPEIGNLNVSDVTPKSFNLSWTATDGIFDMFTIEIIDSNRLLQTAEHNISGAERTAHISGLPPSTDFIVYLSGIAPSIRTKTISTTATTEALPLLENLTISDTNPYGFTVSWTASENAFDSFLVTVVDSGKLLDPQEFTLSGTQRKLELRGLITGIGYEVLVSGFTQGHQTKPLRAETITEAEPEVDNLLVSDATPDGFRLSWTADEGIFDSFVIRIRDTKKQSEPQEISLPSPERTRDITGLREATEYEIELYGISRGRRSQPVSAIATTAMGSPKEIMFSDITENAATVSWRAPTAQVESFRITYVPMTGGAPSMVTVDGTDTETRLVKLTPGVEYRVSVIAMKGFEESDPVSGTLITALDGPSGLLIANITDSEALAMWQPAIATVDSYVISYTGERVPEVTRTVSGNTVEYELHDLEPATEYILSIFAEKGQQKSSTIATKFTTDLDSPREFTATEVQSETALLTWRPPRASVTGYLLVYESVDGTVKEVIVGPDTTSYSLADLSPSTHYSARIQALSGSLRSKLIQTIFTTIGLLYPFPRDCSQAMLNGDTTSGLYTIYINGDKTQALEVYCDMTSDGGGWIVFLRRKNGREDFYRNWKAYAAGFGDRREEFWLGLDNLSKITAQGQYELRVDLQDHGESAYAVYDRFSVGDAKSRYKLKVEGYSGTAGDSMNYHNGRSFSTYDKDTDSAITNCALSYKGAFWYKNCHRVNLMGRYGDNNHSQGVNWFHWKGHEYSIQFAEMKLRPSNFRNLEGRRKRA
T1 sequence (P24821 23-2201): as the sequence (P24821 23-2201) above

| Binder | binding result [1] | binding result [2] | binding result [3] |
| --- | --- | --- | --- |
| B1 | binds | no binding | binds |
| B2 | binds | no binding | binds |
| B3 | binds | no binding | binds |
